# From the supplement of paper PMC12338614
# ± gives the uncertainty stated by the source.
# B1: library; numbered along this chain (parent)
# chain: MEVVDPQQLGMFTEGELMSVGMDTFIHRIDSTEVIYQPRRKRAKLIGKYLMGDLLGEGSYGKVKEVLDSETLCRRAVKILKKKKLRRIPNGEANVKKEIQLLRRLRHKNVIQLVDVLYNEEKQKMYMVMEYCVCGMQEMLDSVPEKRFPVCQAHGYFCQLIDGLEYLHSQGIVHKDIKPGNLLLTTGGTLKISDLGVAEALHPFAADDTCRTSQGSPAFQPPEIANGLDTFSGFKVDIWSAGVTLYNITTGLYPFEGDNIYKLFENIGKGSYAIPGDCGPPLSDLLKGMLEYEPAKRFSIRQIRQHSWFRKKHPPAEAPVPIPPSPDTKDRWRSMTVVPYLEDLHGADEDEDLFDIEDDIIYTQDFTVPGQVPEEEASHNGQRRGLPKAVCMNGTEAAQLSTKSRAEGRAPNPARKACSASSKIRRLSACKQQ
# Variants of: B1
# Assay: STK11 functional score (HeLa growth suppression), rescaled enrichment; synonymous median = 1, nonsense median = 0 (normalised score)
# Details: with HeLa; variant type: missense
# Method in brief: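 In HeLa, Bxb1 integrated POPCode codon-randomised libraries of codon-optimised STK11 at an AAVS1 landing pad; three regions were each transfected three times. Integrants, marked as BFP-negative and mCherry-positive, were FACS-sorted 4–5 days after electroporation and expanded for about two weeks before tiled gDNA amplicons were sequenced on NextSeq (~2 million reads per tile). Each functional score is a post/pre-selection log ratio corrected to wild type, rescaled to the synonymous and nonsense medians, and merged across codons and replicate transfections, with error estimated by bootstrapping.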
row,Variant,STK11 functional score
1,L282F,1.21 ± 0.33
2,L50I,1.62 ± 0.099
3,A76C,1.32 ± 0.13
4,K124N,1.27 ± 0.36
5,D176F,-0.058 ± 0.09
6,E265R,1.41 ± 0.3
7,Y261S,0.699 ± 0.16
8,G180L,1.02 ± 0.094
9,T212M,0.927 ± 0.094
10,Y36I,1.03 ± 0.17
11,M139G,0.563 ± 0.088
12,E98W,0.16 ± 0.15
13,Q214M,1.66 ± 0.2
14,M139P,0.179 ± 0.18
15,L195G,0.969 ± 0.22
16,T336H,1.59 ± 0.14
17,L45A,0.863 ± 0.17
18,L9A,1.28 ± 0.12
19,Q399V,0.994 ± 0.34
20,A397I,1.51 ± 0.27
21,T244A,0.738 ± 0.12
22,L17V,1.35 ± 0.12
23,Q100R,1.34 ± 0.13
24,A397D,1.32 ± 0.35

row,Variant,STK11 functional score
1,L113Q,1.02 ± 0.27
2,R147Y,1.47 ± 0.14
3,I161M,1.31 ± 0.26
4,E407Q,0.809 ± 0.34
5,N412I,1.21 ± 0.43
6,P326R,1.53 ± 0.18
7,P323M,1.55 ± 0.15
8,L50A,1.52 ± 0.24
9,D277I,1.45 ± 0.31
10,G58C,0.374 ± 0.095
11,D350V,1.19 ± 0.34
12,K416V,1.39 ± 0.36
13,F354N,1.6 ± 0.19
14,S142F,1.41 ± 0.43
15,E317V,1.36 ± 0.11
16,L80S,0.479 ± 0.1
17,F148G,-0.0254 ± 0.081
18,C418D,1.57 ± 0.34
19,D355R,1.43 ± 0.22
20,L54M,1.1 ± 0.19
21,E342A,1.11 ± 0.29
22,G10W,1.33 ± 0.084
23,K403L,1.25 ± 0.46
24,G15A,0.969 ± 0.36

row,Variant,STK11 functional score
1,P321I,1.53 ± 0.16
2,Q382A,1.38 ± 0.47
3,D330L,1.59 ± 0.16
4,E357W,0.957 ± 0.15
5,S271I,1.15 ± 0.3
6,D350Y,1.45 ± 0.34
7,D348M,0.896 ± 0.66
8,K48R,1.42 ± 0.54
9,K62S,1.39 ± 0.32
10,A273C,0.584 ± 0.098
11,E130S,1.4 ± 0.09
12,I161V,0.514 ± 0.39
13,Q432W,1.59 ± 0.34
14,A398Q,1.58 ± 0.22
15,P369V,1.21 ± 0.15
16,K287H,1.3 ± 0.15
17,A429I,1.63 ± 0.27
18,I248A,1.15 ± 0.26
19,P281C,0.746 ± 0.32
20,D229A,0.987 ± 0.31
21,K262W,1.05 ± 0.19
22,T24P,1.65 ± 0.26
23,D207L,0.856 ± 0.12
24,I322S,1.21 ± 0.24

row,Variant,STK11 functional score
1,G58Y,-0.201 ± 0.096
2,P254R,0.199 ± 0.14
3,T212H,1.59 ± 0.41
4,L85G,0.21 ± 0.094
5,V372A,1.48 ± 0.16
6,Q123F,0.854 ± 0.079
7,Y131V,0.785 ± 0.087
8,E293I,1.16 ± 0.096
9,F298G,-0.228 ± 0.09
10,G268P,1.07 ± 0.18
11,Y246W,1.15 ± 0.092
12,Q137W,1.25 ± 0.087
13,K403G,1.46 ± 0.23
14,E374A,0.915 ± 0.21
15,A218V,1.07 ± 0.19
16,F298R,0.428 ± 0.25
17,K78D,-0.161 ± 0.078
18,V243L,0.714 ± 0.13
19,D30P,1.67 ± 0.17
20,I424K,1.22 ± 0.33
21,D277T,1.59 ± 0.32
22,G288A,0.95 ± 0.38
23,V110T,1.51 ± 0.13
24,G61R,0.216 ± 0.14

row,Variant,STK11 functional score
1,F234G,1.33 ± 0.41
2,N412T,1.09 ± 0.53
3,P280I,1.36 ± 0.34
4,D343I,1.57 ± 0.18
5,G288P,0.0262 ± 0.088
6,S142P,1.34 ± 0.13
7,K41S,1.46 ± 0.16
8,E92F,1.56 ± 0.53
9,G47R,1.31 ± 0.58
10,A200P,1.35 ± 0.56
11,E14M,1.62 ± 0.18
12,K311R,1.43 ± 0.24
13,G188A,0.938 ± 0.19
14,P144H,0.422 ± 0.16
15,S325R,1.58 ± 0.2
16,V197S,1.58 ± 0.4
17,S404C,1.14 ± 0.56
18,Y60R,1.51 ± 0.41
19,S404Y,0.966 ± 0.14
20,Q220E,0.51 ± 0.44
21,D115Y,0.294 ± 0.094
22,Y292I,1.09 ± 0.13
23,Q382C,1.15 ± 0.19
24,E138N,0.232 ± 0.14

row,Variant,STK11 functional score
1,C210F,1.04 ± 0.12
2,S213M,1.15 ± 0.12
3,I360D,0.487 ± 0.42
4,I267S,1.16 ± 0.29
5,A198G,1.28 ± 0.11
6,L245W,-0.0585 ± 0.093
7,D355Q,1.28 ± 0.16
8,L290I,1.06 ± 0.21
9,E349S,1.38 ± 0.28
10,K124V,1.06 ± 0.11
11,L195P,1.49 ± 0.18
12,A397V,0.799 ± 0.24
13,A377P,1.4 ± 0.38
14,K312L,1.3 ± 0.12
15,S69M,0.689 ± 0.1
16,I356T,1.58 ± 0.43
17,K146I,0.185 ± 0.12
18,K122Q,0.235 ± 0.48
19,D343S,1.35 ± 0.16
20,R86G,1.3 ± 0.46
21,P323G,1.13 ± 0.11
22,V34F,0.976 ± 0.2
23,Q302V,1.21 ± 0.28
24,P281V,1.19 ± 0.14

row,Variant,STK11 functional score
1,V116A,0.197 ± 0.13
2,Q152S,0.733 ± 0.51
3,C73S,1.38 ± 0.43
4,V110S,0.535 ± 0.12
5,P281G,0.787 ± 0.18
6,P339D,1.55 ± 0.23
7,G58S,0.988 ± 0.36
8,I177Y,0.215 ± 0.075
9,D284T,0.863 ± 0.19
10,H345G,1.49 ± 0.39
11,R331Y,1.35 ± 0.16
12,P6W,0.513 ± 0.074
13,T230H,1.46 ± 0.38
14,G288I,-0.0856 ± 0.36
15,D348G,1.26 ± 0.17
16,L45I,0.969 ± 0.33
17,G270T,1.09 ± 0.15
18,A225Y,0.922 ± 0.45
19,N259R,1.13 ± 0.46
20,E120I,1.55 ± 0.18
21,C210G,1.03 ± 0.12
22,K191N,0.186 ± 0.16
23,E293V,1.02 ± 0.18
